Measured values published in patent publication US9120862.

Key:
[1] = target: PIVKA-II antigen (Protein Induced by Vitamin K Absence II; decarboxylated prothrombin) (human) (UniProt P00734); assay: … sandwich chemiluminescent immunoassay, 3C10 microparticles capture, conjugate detects; calibrator C, 100 mAU/mL PIVKA; mean of 5
[2] = target: PIVKA-II antigen (Protein Induced by Vitamin K Absence II; decarboxylated prothrombin) (human) (UniProt P00734); assay: … sandwich chemiluminescent immunoassay, 3C10 microparticles capture, conjugate detects; calibrator B, 20 mAU/mL PIVKA; mean of 5
[3] = target: PIVKA-II antigen (Protein Induced by Vitamin K Absence II; decarboxylated prothrombin) (human) (UniProt P00734); assay: … sandwich chemiluminescent immunoassay, 3C10 microparticles capture, conjugate detects; calibrator E, 7500 mAU/mL PIVKA; mean of 5
[4] = target: PIVKA-II antigen (Protein Induced by Vitamin K Absence II; decarboxylated prothrombin) (human) (UniProt P00734); assay: … sandwich chemiluminescent immunoassay, 3C10 microparticles capture, conjugate detects; calibrator A, 0 mAU/mL PIVKA (blank); mean of 5
[5] = target: PIVKA-II antigen (Protein Induced by Vitamin K Absence II; decarboxylated prothrombin) (human) (UniProt P00734); assay: … sandwich chemiluminescent immunoassay, 3C10 microparticles capture, conjugate detects; calibrator F, 30000 mAU/mL PIVKA; mean of 5
[6] = target: PIVKA-II antigen (Protein Induced by Vitamin K Absence II; decarboxylated prothrombin) (human) (UniProt P00734); assay: … sandwich chemiluminescent immunoassay, 3C10 microparticles capture, conjugate detects; calibrator D, 750 mAU/mL PIVKA; mean of 5

RLU [1]: 2600 RLU | RLU [2]: 683 RLU | RLU [3]: 204000 RLU | RLU [4]: 190 RLU | RLU [5]: 871000 RLU | RLU [6]: 19000 RLU
Substance: control conjugate that reacts to human prothrombin (Abbott Japan, Tokyo, Japan) (antibody)
